Measurements from article PMC10362293.
Read-outs that look alike come from different tables or passages of the source.

Key:
[1] = target: FoxP1 FKH domain, single-cysteine mutant N32C (on C61S) labelled with Oregon Green 488 (human); assay: fluorescence polarisation
[2] = target: FoxP1 FKH domain, single-cysteine mutant N32C (on C61S) labelled with Oregon Green 488 (human); assay: fluorescence polarisation; remark: listed apart in the source

Kd [1]: 38 µM
Kd [2]: 18 µM
kon [2]: 583 M⁻¹ s⁻¹
B1: FoxP2 FKH domain, unlabeled (domain or fragment)
chain: VRPPFTYATLIRQAIMESSDRQLTLNEIYSWFTRTFAYFRRNAATWKNAVRHNLSLHKCFVRVENVKGAVWTVDEVEYQKRRSQKITGSPTL
